± gives the uncertainty stated by the source.

The nature of the data set: amyloid nucleation score (Sup35N fusion, yeast selection) (log enrichment); library NNK1; higher = more nucleation; inactive = no reads after selection. An outline of the steps: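 The nucleation score equals the log enrichment of output over input reads from DiMSum, centred on the mode score of non-aggregating sequences. It was computed only for sequences with 100 or more input reads. The reads came from Illumina sequencing of plasmid inserts from psi-negative yeast expressing Sup35N fused to peptides of 20 random codons, induced with 100 μM copper sulfate for 24 hours and grown 7 days at 30°C without adenine and uracil.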
On to SDSGCEGESCQNRLISVGLL, for which the amyloid nucleation score is -0.084 ± 0.46. In the case of TEYVTLLGLSLGFVLASLGA it was 0.283 ± 0.43; in that of SGSMVRDRW, 1.83 ± 0.27. With NRIPHGSRRSRAISKVRDA, the amyloid nucleation score turned out to be 0.728 ± 0.97.

APSWYRSLMRSSA showed an amyloid nucleation score of 0.159 ± 0.34. In the case of FRRLHRYRWDNECLGMQVGS it was -1.48 ± 2.1. As to IRYLWHVLMVRFEESRWSLY, the amyloid nucleation score is -0.061 ± 0.36. In the case of RYCHVLIVIAQANQSFKDVQ it was 7.725 ± 0.056; in that of RDCWQ, -0.571 ± 0.3; in that of IPRYCRRNMADSAIV, 0.923 ± 0.62. The result for VINIFMVSLANTETDPTAHL reads 8.324 ± 0.071; that for FSQYVGDFYILMRVSFEFMK, 0.033 ± 0.44. Substance EERDFKEPSRLVIIKLTVMF displayed an amyloid nucleation score of 3.18 ± 0.12. The result for MVTDPWISTLSSFHLWGGFM reads -0.318 ± 0.93.

As to RHCPLAVFRKSPLLAIGKFG, the amyloid nucleation score was -0.685 ± 0.66. In the case of CYCLNAGVSMADHSVPPRVF it was 0.912 ± 0.71; in that of DYAFKFCFQLVDKAYRSLSY, -0.413 ± 0.27; in that of YLRPGCSSVRSNATMGNSYL, 0.641 ± 0.45. The result for RICGGTSFDSRNGLKLGRKG reads 0.034 ± 0.64; that for RCDRTGQRRALDRGSCFLVE, -0.46 ± 1.1; that for PGKSLIIHMCFSMSKTTENG, 2.52 ± 0.08. In turn, HKSIMAYRN showed an amyloid nucleation score of 0.677 ± 0.68. Take FWCISVRVNYNGYYVYF: the amyloid nucleation score turned out to be 1.2 ± 0.26. The result for TLFMRVGYR reads 3.87 ± 0.12; that for MRFGLRYKALALRVFVEMTA, “inactive”; that for MWGARLRVWPGYERLSAFNH, -0.552 ± 0.44. For IKGQGVKVSVVLTAGTCRLW, the amyloid nucleation score amounted to 1.17 ± 0.19. The result for YMNTFVIRSMHSLLNGYAFS reads 0.429 ± 0.88.

In turn, ANGILV showed an amyloid nucleation score of 0.499 ± 0.28. In the case of ACTYYIWVLSCAGPRAGGKE it was 7.257 ± 0.048; in that of PCWLQMSCR, -0.148 ± 0.79; in that of ENHSECNWRKCQQTLISHEC, 0.487 ± 0.71. Turning to STHCFWVTPGD, the amyloid nucleation score was found to be 0.483 ± 0.83. In the case of VQETYGYLYRNNIDRGGHIN it was 2.07 ± 0.56. In the case of LLDRLRRTGLRRCYVSGEFP it was 5.89 ± 0.084.

For the substance WDDSINCTTK, the amyloid nucleation score entry was “inactive”.

As for AGPDSSGAGGGSARFLFPEL, the amyloid nucleation score turned out to be 0.184 ± 1.2.

Regarding DFVMGYYVELWFMYASL, the amyloid nucleation score came to 0.4 ± 0.21.

For DHGHCISPNTSYFMVDWFLK, the amyloid nucleation score came out at 0.473 ± 0.39. The result for AGGLLYMLTHLNDVHSVKRY reads 1.12 ± 0.93. In turn, LNIRVIRGLGRMNAPVVSDL returned an amyloid nucleation score of 1.32 ± 0.57. In turn, PKVFIEKAAIYIFAL had an amyloid nucleation score of 0.029 ± 0.51. The result for FDKGVSIRPSAWRDPRVWPS reads 0.417 ± 0.47; that for MDVGIFMIMTVTRWKGCSVI, 0.565 ± 0.48; that for VAADMEARYIFCYIINVDAR, 4.98 ± 0.083. The result for ESSGTFFP reads -0.186 ± 0.9; that for CDGDASAYDTRGTALSA, “inactive”. Take SLFRVDYIDRFLSQFVEYNG: the amyloid nucleation score was found to be 0.333 ± 0.55. The result for SLATEYCSPFNINRFHLVSI reads 1.78 ± 0.29; that for AAMAYFWADRLKHGFYTW, 4.74 ± 0.092. In the case of YLWLYVLSRTWVFNKHPSPI it was -0.543 ± 0.41; in that of DGTVGSYCMIFWELYRDNFF, -0.761 ± 1.2; in that of WCSTQLVRKIKVFEKSERGV, -1.07 ± 2.1. In the case of RGYSGTTTHAATATKLS it was 1.56 ± 0.78; in that of YILACAKVTEDPVSVSMKCA, -0.278 ± 0.74; in that of SHLCTMIGTCFL, 1.98 ± 0.13. YIDVFVSRVLHSGFERSDVV showed an amyloid nucleation score of 0.745 ± 0.2. In the case of MIVRSVILNDCWAGGACLHF it was 6.936 ± 0.047.

Take CTGIWSLLSCTTFRHIATVV: the amyloid nucleation score is -0.469 ± 1.7.

Turning to ATKSRLVNILTGKDEALTGL, the amyloid nucleation score is -0.684 ± 0.42. For the substance CRLSNGV, the amyloid nucleation score was -0.392 ± 0.31. For the substance KLVIETSPCVRSHVSLVQKR, the amyloid nucleation score was -0.277 ± 0.26. The result for LVSMRMAFCPWLVRKGIPL reads 0.206 ± 1.6; that for VVCRVNTSVMGFKSNCRLGV, 0.624 ± 0.6. The result for LKAIFVFFVEFRDPLIMRES reads 0.269 ± 0.79.

Regarding IMFLRLFKGLCMKYSVRRDC, the amyloid nucleation score is -0.512 ± 0.4. The result for FYSCIYYGHMLVELPDMLEL reads -0.056 ± 0.35; that for CEGCSWFSCSF, 0.749 ± 0.48; that for GTRQSDHYCVSTGLCV, 0.352 ± 0.36. In the case of GCMAPNCCGWEGVDEMSWVR it was -0.013 ± 0.84. The result for SHEGTGLGMGAVG reads -0.01 ± 0.36; that for GHCGPEKREIDVAGVWVERS, -0.098 ± 1.3; that for PALLEIQWSSCGV, -0.02 ± 0.72.

GVCWRDYGLEAGTGAQVQQC yielded an amyloid nucleation score of 3.03 ± 0.15.

On to SVDIAINALS, for which the amyloid nucleation score is 0.492 ± 0.41. The result for TVKSWKFNRFIGLKRSTESL reads 0.238 ± 0.42; that for VFSMC, “inactive”; that for PVCGFRRWKCLPN, 0.318 ± 0.66.

Turning to VSTCTL, the amyloid nucleation score entry is “inactive”.

Consider VVKSEVNTVA, for which the amyloid nucleation score is 1.27 ± 0.62. In the case of KNLKW it was 0.476 ± 0.97; in that of FHIRWE, “inactive”; in that of RHALGLFRSGLGMDMDDNGS, “inactive”. In the case of VTFVIYNRDNSAEYGVVFC it was -0.46 ± 0.71; in that of FCMWKGAFDRDYVGNGVAGS, “inactive”. VSGESDSYRVGFSEACLRKL: the amyloid nucleation score is -0.849 ± 0.65.

As for KYSEDLIRQEDVVRYMGTMS, the amyloid nucleation score is -0.056 ± 0.24. Consider VKNWMYWQGMSVCRVCRGFY, for which the amyloid nucleation score stood at 1.02 ± 0.38.

For the substance TYHFIYEWISLTIT, the amyloid nucleation score entry is “inactive”. ILVPYLIAFFMEYRSRLCRF: the amyloid nucleation score was found to be 0.254 ± 0.27. For the substance MTVSRNFDYAKLCEWRRVNR, the amyloid nucleation score is -0.371 ± 0.37.

As for FCLSMVVDWVGR, the amyloid nucleation score was -0.342 ± 0.31. The result for MVYLGECCITFYSFNSYRVM reads 4.55 ± 0.053; that for RMFWANLQVSVNFGDKRVKY, 4.13 ± 0.091. CLCMSC showed an amyloid nucleation score of 0.108 ± 0.43. The result for SVLTSMSITCWWKFWVGMSM reads -0.731 ± 1.4; that for SAYSILSTMFIYFVKSQGTD, 3.38 ± 0.058; that for DSGWRWCNRSTSVGNVNVMR, 0.171 ± 0.43.

With ICHFVLYVQRPNSGWHYKSL, the amyloid nucleation score was 1.91 ± 0.53. On to RCCIIDLFS, for which the amyloid nucleation score worked out at 4.87 ± 0.066.

Regarding YYGYVLFQGFSM, the amyloid nucleation score worked out at 1.82 ± 0.19. In the case of FSCSTCNVCNERHPEVFTYD it was 1.15 ± 0.51; in that of EAPGTKFCC, 2.94 ± 0.1. The result for FLLDMV reads -0.175 ± 0.45.

Take CKTGGFYRSVGRTTRFCHVE: the amyloid nucleation score was -0.321 ± 0.39. The result for CVVFAVKGCAGGWTRFMLDN reads -0.268 ± 0.4. In the case of PTFAADSEGHS it was 0.085 ± 0.63; in that of HEGPCKRNCTGVLLRSARRH, -0.049 ± 0.26. The result for YHILGCKIVNVIDTALGPWL reads 5.8 ± 0.06; that for TCRKTTMQRRSTHNLVKCDE, -1.47 ± 2.7.

In the case of VYESGRCNLACRMFARDGCS, the amyloid nucleation score was -1.38 ± 2.4. With NIKEKG, the amyloid nucleation score turned out to be 0.635 ± 0.44. In the case of GHWLYMTYLCL it was 0.459 ± 0.75. The result for GNFCFPMAYTGLVFGEMLSF reads 0.1 ± 0.24; that for RLNVQLAGSVGVVWFICNWA, 5.98 ± 0.056; that for NHLVG, 0.526 ± 1.4. The result for FINVAFGCVYVRTNCLRMEG reads 7.116 ± 0.059; that for LQNETLSMSMRLLMAYFIKL, 0.13 ± 1.2. With TPFGSVMVGYWQPIPLRDLG, the amyloid nucleation score turned out to be 0.634 ± 0.54. NNVNEVWWA yielded an amyloid nucleation score of 0.249 ± 0.69. The result for YFKAMEVTFSFWH reads 0.491 ± 0.23. In the case of YDIGFVI it was -0.067 ± 0.28; in that of LDGVFNTTIATVNSFREYLM, 0.132 ± 0.48; in that of WRICLQCRAYPLRTTGGQRQ, 0.444 ± 0.69. In the case of CSDFITLSMFV it was 0.99 ± 0.66; in that of SGFGYSYCTLHCRTFWCLRP, 0.972 ± 0.3. The substance GGYRVLIFSIFRG registered an amyloid nucleation score of 0.599 ± 0.51.

ASLTFFS yielded an amyloid nucleation score of 0.283 ± 0.76.

Take IIPPV: the amyloid nucleation score result was “inactive”. IFSHIPCLITFSNDQ yielded an amyloid nucleation score of 2.13 ± 0.43. The result for NLHVQGVTRNGC reads 3.84 ± 0.076; that for WAFIHSCRYKLTCGGYFYAR, -0.236 ± 1.2. In the case of TAGLIILINSYASGRLTGDP it was 6.639 ± 0.049; in that of FVSNYYYV, 1.95 ± 0.17; in that of YLLPEPKQCVSPE, 0.625 ± 0.5. For NYRIRAWGNNYGHQGATCLR, the amyloid nucleation score entry is “inactive”. In the case of IMARCIVFKPG it was 0.136 ± 0.75. ASAFFRVWSLNKIICYEVSD: the amyloid nucleation score was 4.56 ± 0.051.

Take RTGRAYLWGSWSLEHHNLGG: the amyloid nucleation score entry was “inactive”. In the case of IYLLLCLENRVDMLE it was “inactive”.
